First the molecules themselves.
T1: H4-15 histone H4 tail peptide
T1 chain: GRGKGGKGLGKGGAK

B1: semi-synthetic p300 HAT domain E1505R (protein)
chain: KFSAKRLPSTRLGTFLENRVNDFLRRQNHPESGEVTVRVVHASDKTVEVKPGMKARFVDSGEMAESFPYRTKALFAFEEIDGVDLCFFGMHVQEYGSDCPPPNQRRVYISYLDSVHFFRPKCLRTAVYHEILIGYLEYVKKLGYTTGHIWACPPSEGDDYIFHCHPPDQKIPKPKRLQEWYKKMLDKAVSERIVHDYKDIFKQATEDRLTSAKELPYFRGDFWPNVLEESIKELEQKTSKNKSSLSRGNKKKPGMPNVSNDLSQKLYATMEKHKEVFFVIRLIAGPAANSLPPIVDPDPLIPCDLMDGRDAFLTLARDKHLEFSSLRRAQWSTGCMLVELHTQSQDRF
B2: semi-synthetic p300 HAT domain T1357L (protein)
chain: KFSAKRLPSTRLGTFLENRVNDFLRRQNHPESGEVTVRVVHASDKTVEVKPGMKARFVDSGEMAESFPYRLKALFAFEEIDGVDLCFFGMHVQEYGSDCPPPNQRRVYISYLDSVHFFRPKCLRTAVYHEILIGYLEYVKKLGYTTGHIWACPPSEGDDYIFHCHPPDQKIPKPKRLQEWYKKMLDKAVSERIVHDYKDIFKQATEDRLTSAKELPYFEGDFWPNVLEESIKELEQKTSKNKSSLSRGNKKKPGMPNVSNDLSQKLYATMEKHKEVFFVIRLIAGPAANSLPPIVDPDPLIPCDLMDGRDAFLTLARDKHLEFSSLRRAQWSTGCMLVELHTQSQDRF
B3: semi-synthetic p300 HAT domain Y1467F (protein)
chain: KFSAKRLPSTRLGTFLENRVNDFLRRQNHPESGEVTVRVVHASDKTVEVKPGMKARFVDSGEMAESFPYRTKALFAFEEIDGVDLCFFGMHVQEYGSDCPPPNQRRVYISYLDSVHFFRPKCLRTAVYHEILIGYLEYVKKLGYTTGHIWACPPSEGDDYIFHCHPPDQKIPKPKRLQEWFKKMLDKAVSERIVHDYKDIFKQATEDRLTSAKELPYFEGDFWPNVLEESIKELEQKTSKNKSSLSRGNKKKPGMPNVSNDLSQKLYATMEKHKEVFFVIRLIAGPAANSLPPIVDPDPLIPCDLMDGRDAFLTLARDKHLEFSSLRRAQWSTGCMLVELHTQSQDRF
B4: semi-synthetic p300 HAT domain W1436A (protein)
chain: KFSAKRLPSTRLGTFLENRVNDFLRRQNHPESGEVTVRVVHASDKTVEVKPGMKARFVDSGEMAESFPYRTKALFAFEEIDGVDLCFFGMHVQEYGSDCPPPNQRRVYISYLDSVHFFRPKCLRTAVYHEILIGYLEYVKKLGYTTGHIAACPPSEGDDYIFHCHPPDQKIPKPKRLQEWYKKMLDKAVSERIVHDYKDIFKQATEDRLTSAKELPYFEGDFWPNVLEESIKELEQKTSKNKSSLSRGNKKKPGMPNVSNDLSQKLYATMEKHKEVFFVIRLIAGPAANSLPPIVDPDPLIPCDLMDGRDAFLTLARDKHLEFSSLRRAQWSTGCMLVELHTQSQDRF
B5: semi-synthetic p300 HAT domain T1357R (protein)
chain: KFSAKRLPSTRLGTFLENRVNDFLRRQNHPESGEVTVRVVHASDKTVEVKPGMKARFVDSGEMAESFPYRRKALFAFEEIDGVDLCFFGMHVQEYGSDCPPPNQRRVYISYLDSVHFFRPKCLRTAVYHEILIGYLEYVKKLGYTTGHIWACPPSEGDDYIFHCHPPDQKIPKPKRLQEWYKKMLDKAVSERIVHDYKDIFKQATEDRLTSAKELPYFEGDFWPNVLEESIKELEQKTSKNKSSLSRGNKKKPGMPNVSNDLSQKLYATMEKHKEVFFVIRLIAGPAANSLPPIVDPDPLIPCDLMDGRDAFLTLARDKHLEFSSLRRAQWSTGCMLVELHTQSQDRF
B6: semi-synthetic p300 HAT domain H1434A (protein)
chain: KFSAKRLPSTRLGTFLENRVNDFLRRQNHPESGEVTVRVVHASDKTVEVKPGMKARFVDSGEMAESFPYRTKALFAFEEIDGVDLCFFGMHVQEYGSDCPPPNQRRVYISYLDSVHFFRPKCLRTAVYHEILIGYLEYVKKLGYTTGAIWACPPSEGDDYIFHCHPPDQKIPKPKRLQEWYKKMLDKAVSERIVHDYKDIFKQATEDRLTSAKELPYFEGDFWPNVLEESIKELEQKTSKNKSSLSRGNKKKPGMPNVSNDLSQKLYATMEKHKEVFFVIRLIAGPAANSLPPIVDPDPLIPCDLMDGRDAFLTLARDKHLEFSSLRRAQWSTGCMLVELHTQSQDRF
B7: semi-synthetic p300 HAT domain E1505R/D1625R/D1628R triple mutant (protein)
chain: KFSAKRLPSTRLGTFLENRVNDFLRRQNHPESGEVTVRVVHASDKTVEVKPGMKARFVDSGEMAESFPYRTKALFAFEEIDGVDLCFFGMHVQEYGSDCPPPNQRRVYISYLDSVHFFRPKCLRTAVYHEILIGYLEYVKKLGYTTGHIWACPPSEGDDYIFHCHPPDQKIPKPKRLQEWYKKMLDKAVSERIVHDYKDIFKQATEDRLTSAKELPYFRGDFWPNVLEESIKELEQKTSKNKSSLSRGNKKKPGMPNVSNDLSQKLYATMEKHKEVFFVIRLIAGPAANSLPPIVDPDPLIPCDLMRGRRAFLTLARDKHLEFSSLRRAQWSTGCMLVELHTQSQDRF
B8: semi-synthetic p300 HAT domain S1396R/Y1397R double mutant (protein)
chain: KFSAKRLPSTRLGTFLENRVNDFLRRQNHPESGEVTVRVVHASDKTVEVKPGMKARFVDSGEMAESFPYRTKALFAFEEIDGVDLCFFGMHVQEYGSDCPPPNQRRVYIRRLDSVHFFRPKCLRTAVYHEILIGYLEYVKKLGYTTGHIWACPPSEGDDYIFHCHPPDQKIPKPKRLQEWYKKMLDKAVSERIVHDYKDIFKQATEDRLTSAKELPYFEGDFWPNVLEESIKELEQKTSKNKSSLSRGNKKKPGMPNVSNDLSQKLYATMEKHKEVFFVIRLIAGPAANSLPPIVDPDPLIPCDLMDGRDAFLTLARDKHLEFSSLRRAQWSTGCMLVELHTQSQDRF
B9: semi-synthetic p300 HAT domain R1410A (protein)
chain: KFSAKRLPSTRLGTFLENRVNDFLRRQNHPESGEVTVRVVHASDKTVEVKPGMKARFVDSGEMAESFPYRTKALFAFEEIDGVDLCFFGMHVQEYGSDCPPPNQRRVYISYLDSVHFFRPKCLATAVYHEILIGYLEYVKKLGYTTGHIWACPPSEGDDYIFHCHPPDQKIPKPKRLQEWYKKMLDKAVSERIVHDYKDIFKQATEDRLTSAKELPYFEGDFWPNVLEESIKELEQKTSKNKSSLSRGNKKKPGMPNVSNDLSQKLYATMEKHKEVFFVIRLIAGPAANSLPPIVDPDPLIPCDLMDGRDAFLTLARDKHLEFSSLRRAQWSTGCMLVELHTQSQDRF
B10: semi-synthetic p300 HAT domain D1625R (protein)
chain: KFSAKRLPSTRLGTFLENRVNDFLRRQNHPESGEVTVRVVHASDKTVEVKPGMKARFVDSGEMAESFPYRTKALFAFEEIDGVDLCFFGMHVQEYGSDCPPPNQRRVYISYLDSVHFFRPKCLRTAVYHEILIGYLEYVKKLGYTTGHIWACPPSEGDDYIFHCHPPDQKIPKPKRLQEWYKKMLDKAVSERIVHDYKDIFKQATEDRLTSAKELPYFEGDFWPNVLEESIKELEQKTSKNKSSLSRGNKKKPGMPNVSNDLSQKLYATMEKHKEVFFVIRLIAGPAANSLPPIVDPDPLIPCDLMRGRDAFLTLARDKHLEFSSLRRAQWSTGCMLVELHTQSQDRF
B11: semi-synthetic p300 HAT domain D1628R (protein)
chain: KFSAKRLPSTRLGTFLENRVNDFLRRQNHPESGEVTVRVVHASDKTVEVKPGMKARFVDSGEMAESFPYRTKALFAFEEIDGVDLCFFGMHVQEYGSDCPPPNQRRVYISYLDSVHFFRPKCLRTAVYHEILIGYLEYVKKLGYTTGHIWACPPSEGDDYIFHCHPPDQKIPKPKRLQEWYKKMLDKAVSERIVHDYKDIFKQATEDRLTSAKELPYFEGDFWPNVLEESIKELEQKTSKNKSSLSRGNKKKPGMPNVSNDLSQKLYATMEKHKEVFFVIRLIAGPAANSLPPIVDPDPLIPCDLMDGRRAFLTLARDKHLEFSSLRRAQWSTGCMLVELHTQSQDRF
B12: semi-synthetic p300 HAT domain R1410K (protein)
chain: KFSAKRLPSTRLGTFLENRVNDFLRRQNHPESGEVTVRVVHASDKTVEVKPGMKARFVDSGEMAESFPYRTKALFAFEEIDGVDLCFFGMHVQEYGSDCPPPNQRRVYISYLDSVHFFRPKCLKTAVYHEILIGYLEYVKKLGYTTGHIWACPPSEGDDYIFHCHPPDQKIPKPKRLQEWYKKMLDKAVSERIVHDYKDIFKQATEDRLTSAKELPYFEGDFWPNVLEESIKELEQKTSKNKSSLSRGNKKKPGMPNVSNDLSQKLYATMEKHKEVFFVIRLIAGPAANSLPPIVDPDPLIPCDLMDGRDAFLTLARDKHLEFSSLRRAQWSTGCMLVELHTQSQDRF
B13: semi-synthetic p300 HAT domain Y1394F (protein)
chain: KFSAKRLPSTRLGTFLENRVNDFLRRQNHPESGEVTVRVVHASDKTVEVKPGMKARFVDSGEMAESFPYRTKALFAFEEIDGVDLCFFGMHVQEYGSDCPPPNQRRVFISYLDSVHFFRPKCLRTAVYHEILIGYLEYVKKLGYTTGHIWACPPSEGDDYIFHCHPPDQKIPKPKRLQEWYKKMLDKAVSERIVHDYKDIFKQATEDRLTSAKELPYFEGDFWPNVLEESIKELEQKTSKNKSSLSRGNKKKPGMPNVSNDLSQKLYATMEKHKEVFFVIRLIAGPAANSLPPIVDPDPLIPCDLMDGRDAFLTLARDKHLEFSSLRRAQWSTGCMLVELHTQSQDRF

The source of these data is patent US20100216853.

For the data set, the target named is T1, H4-15 histone H4 tail peptide.
Regarding B1, the “Km(µM) for H4-15” value is above 1000, the V/K is 2000 M⁻¹ s⁻¹ and the “V/K decrease against wild-type” value is “V/K was decreased by 12-fold”.

Take B2: the Km(µM) for H4-15 amounted to 111 µM and the V/K came out at 18700 M⁻¹ s⁻¹.

Regarding B3, the Km(µM) for H4-15 is 520 µM.

For B4, the Km(µM) for H4-15 is 394 µM.

As for B5, the Km(µM) for H4-15 is 294 µM and the V/K is 13200 M⁻¹ s⁻¹.

With B6, the Km(µM) for H4-15 is 151 µM.

Take B7: the “Km(µM) for H4-15” value is recorded as above 1000 and the V/K turned out to be 232 M⁻¹ s⁻¹.

Take B8: the “decrease of p300 HAT activity against wild-type” value is “severely decreased p300 HAT activity (>50-fold)”.

On to B9, for which the Km(µM) for H4-15 turned out to be 190 µM.

Regarding B10, the Km(µM) for H4-15 is 640 µM, the V/K is 5670 M⁻¹ s⁻¹ and the “V/K decrease against wild-type” value is “a V/K decrease of about 5-fold”.

As for B11, the “Km(µM) for H4-15” value is above 1000, the V/K is 2100 M⁻¹ s⁻¹ and the “V/K decrease against wild-type” value is given as “V/K was decreased by 12-fold”.

As for B12, the Km(µM) for H4-15 is 156 µM.

Turning to B13, the Km(µM) for H4-15 turned out to be 136 µM.
